The values that follow come from paper PMC12704761, “RAD51AP1 is a versatile RAD51 modulator” (Proceedings of the National Academy of Sciences of the …, 2025).

T1: RAD51AP1 (RAD51 associated protein 1), full-length wild type (UniProt Q96B01 1-352)
T1 construct: RAD51AP1, synthetic gene from Invitrogen; printed residue numbers (H346); One of PDB 9QN8, 9QNA, 9QNB, 9QNC holds its modelled residues; Detailed protocols are in SI Appendix, Supplementary Methods; also called WT; source: expressed from a pET28 vector, purified (HisTrap, HiTrap Heparin, HiTrap Q, gel filtration); not shown: His6, C-terminal, kept
T1 sequence (looked up): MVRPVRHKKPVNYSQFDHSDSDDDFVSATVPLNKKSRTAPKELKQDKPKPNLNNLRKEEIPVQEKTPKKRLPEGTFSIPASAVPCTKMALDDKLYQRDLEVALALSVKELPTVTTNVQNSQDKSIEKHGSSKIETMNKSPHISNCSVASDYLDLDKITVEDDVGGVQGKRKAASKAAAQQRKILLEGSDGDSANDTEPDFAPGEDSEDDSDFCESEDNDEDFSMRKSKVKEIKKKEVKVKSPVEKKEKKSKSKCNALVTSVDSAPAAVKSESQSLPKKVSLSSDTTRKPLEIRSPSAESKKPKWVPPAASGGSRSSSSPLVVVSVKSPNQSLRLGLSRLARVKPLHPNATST

T2: RAD51AP1-H346A (Site-C mutant), full-length (UniProt Q96B01 1-352, H346A)
T2 construct: RAD51AP1 with H346A; source: expressed from a pET28 vector, purified (HisTrap, HiTrap Heparin, HiTrap Q, gel filtration); not shown: His6, C-terminal, kept
T2 sequence (looked up): T1 sequence (looked up) with H346A

T3: RAD51AP1 Site-NC double mutant, full-length (UniProt Q96B01 1-352, K300 to alanine | K303 to alanine | W304 to alanine | P306 to alanine | P307 to …)
T3 construct: RAD51AP1 in which both Site-N (K300, K303, W304, P306, P307 to alanine) and Site-C (H346A) are mutated; also called Site-N and Site-C double mutant; source: expressed from a pET28 vector, purified (HisTrap, HiTrap Heparin, HiTrap Q, gel filtration); not shown: His6, C-terminal, kept
T3 sequence (looked up): T1 sequence (looked up) with K300A, K303A, W304A, P306A, P307A, H346A

T4: RAD51AP1 Site-N mutant, full-length (UniProt Q96B01 1-352, K300 to alanine | K303 to alanine | W304 to alanine | P306 to alanine | P307 to …)
T4 construct: RAD51AP1 with five conserved Site-N residues (K300, K303, W304, P306, P307) mutated to alanine; source: expressed from a pET28 vector, purified (HisTrap, HiTrap Heparin, HiTrap Q, gel filtration); not shown: His6, C-terminal, kept
T4 sequence (looked up): T1 sequence (looked up) with K300A, K303A, W304A, P306A, P307A

T5: RAD51 recombinase, Q06609
T5 chain: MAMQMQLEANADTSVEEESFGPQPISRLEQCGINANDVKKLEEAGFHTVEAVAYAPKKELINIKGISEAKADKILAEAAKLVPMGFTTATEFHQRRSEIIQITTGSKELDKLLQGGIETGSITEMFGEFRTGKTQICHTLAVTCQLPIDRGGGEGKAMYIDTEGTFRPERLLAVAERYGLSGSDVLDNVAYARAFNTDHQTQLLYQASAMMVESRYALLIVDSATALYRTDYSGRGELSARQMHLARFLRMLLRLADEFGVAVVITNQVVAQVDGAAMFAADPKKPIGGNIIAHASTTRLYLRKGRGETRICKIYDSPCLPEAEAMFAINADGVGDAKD

B1: RAD51AP1 C29 (domain or fragment, UniProt Q96B01 324-352, looked up)
chain: SVKSPNQSLRLGLSRLARVKPLHPNATST
notes: RAD51AP1, C-terminal 29 residues; lacks Site-N, contains Site-M and Site-C; One of PDB 9QN8, 9QNA, 9QNB, 9QNC holds it; also called RAD51AP1 C29 fragment; RAD51AP1 C-terminal domain
B2: RAD51 recombinase (natural protein)
chain: T5 chain
notes: RAD51 recombinase, wild type; expressed from the pCH1-derived plasmid pJ9; In the cryo-EM samples it stood as a filament on ssDNA with Ca2+-ATP, Mg2+-ATP or Mg2+-ADP; the introduction speaks of the human genome and the discussion sets 'mouse proteins' of earlier work apart; source: E. coli BL21 (DE3), coexpressed with His-MBP-BRC4 and GroEL, purified (HisTrap, HiTrap Heparin, HiTrap Q)
B3: RAD51AP1 C59, wild type K300A; K303A; W304A; P306A; P307A (protein)
chain: SPSAESAKPAAVAAAASGGSRSSSSPLVVVSVKSPNQSLRLGLSRLARVKPLHPNATST

Test [1] deals with B2. Nature of the test: cryo-EM structure; RAD51-ssDNA filaments formed with Mg2+-ATP (7 µM RAD51) mixed with C29 (28 µM); single particle analysis, 3.0 Å. The conditions noted are these: both partners purified.
The target in test [2] is T1, RAD51AP1 (RAD51 associated protein 1), …. As to the kind of experiment: BLI; RAD51AP1 with C-terminal hexahistidine tag on nickel-NTA biosensors, RAD51 2.5 µM to 39 nM, Octet Red, 25 °C, Kd from response against concentration, 1:1 model. The conditions noted are these: both partners purified.
In test [3] the target is T2, RAD51AP1-H346A (Site-C mutant), …. Described as above. The conditions noted are these: both partners purified.
The target in test [4] is T3, RAD51AP1 Site-NC double mutant, …. Described as above. The settings on record: both partners purified.
In test [5] the target is T4, RAD51AP1 Site-N mutant, full-length. Nature of the test: pull-down; His-tagged full-length RAD51AP1 (1 µM) immobilised on magnetic cobalt resin, RAD51 (1 µM) in pull-down buffer with ATP and Mg2+, 37 °C, 5 min; SDS-PAGE of supernatant and eluate. The conditions noted are these: both partners purified.
For test [6], the target named is T5, RAD51 recombinase, Q06609. As to the kind of experiment: pull-down. The conditions noted are these: chain shown with the change; n = 3; parent: est. 54; read off a plot.

A word on the Kd: it is a measure of binding affinity in units of concentration. Read a high Kd as a looser complex.

Positions count from the first letter of the chain named. Numbers in names are those of the source.

On to B1, for which the binding result in test [1] is reported as “binds”.
Consider B2, for which the Kd in test [2] was ~600 nM. The “fold decrease in binding affinity against wild-type RAD51AP1” value in test [3] was ~2.5 fold. In test [4], the “fold reduction in affinity against wild-type RAD51AP1” value was ~4 fold. In test [5], the binding result is listed as “binds”.
B3: the response in test [6] was found to be 60%.
